Measured values from patent US8846003 (PURDUE RESEARCH FOUNDATION, dated 2014).
*: point of attachment. Dansyl = CN(C)c1cccc2c(S(=O)(=O)*)cccc12

Legend:
[1] = biological target: T1, collagen; assay: fluorescence plate binding assay; collagen coated on 96-well high-binding plate, Z-SILY 100 µM to 10 nM, ex/em 335/490 nm; from equilibrium binding
T1 construct: also called collagen surface; collagen-treated well
Method: (§1) Binding assays were done in a 96-well high-binding plate, black with a clear bottom (Costar). Collagen was compared to untreated wells and BSA coated wells. Collagen and BSA were immobilized at 37° C. for 1 hr by incubating 90 µL/well at concentrations of 2 mg/mL in 10 mM HCl and 1×PBS, respectively. Each well was washed 3× with 1×PBS after incubating. Z-SILY was dissolved in 1×PBS at concentrations from 100 µM to 10 nM in 10-fold dilutions. Wells were incubated for 30 min at 37° C. and rinsed 3× with PBS and then filled with 90 µL of 1×PBS. Fluorescence readings were taken on an M5 Spectramax Spectrophotometer (Molecular Devices) at excitation/emission wavelengths of 335 nm/490 nm respectively.

[2] = biological target: T1, collagen; assay: microplate fluorescence binding assay on collagen-coated wells, binding curve fitted to the data of FIGURE 4
Description: Figure 4: FIG. 4. Binding of dansyl-modified peptide SILY to collagen measured in 96-well high-binding plate (black with a clear bottom (Costar)). PBS, buffer only; BSA, BSA-treated well; Collagen, collagen-treated well. Fluorescence readings were taken on an M5 Spectramax Spectrophotometer (Molecular Devices) at excitation/emission wavelengths of 335 nm/490 nm, respectively. Figure 5: FIG. 5. Collagen-dansyl-modified peptide SILY binding curve derived from fluorescence data described in FIG. 4. Figure 6: FIG. 6. A schematic description of the reagent, 3-(2-pyridyldithio)propionyl hydrazide (PDPH), and the chemistry of the two-step conjugation of a cysteine-containing peptide with an oxidized glycosylaminoglycoside showing the release of 2-pyridylthiol in the final step.
as §1, with “Wells were incubated for 30 min at 37° C. and rinsed 3× with PBS and then filled with 90 µL of 1×PBS.” left out

Kd [1]: 860 nM | EC50 (read off the curve) [2]: ~900 nM
B1: Dansyl-GRRANAALKAGELYKSILYGC (peptide)
peptide: Dansyl-GRRANAALKAGELYKSILYGC-NH2
notes: Fluorescently labelled version of SILY; also called Z-SILY; ZSILY
